Key:
[1] = test system: iCell® motor neurons; assay: Toxicity of (GR)10, untreated or protease-treated, on iCell motor neurons; type: cell-based; conditions: (GR)10 concentrations of 25, 50 and 100 μM
Procedure: 200 μM of (GR)10 were diluted in human cerebrospinal fluid (CSF) and 400 μL were applied to each immobilized proteases. The reaction was incubated 5 minutes at room temperature with end-to-end mixing. Columns were spun down 1 minute at 1,000 Xg to recover digested GR dipeptides. Columns were washed with 12 resin volumes of PBS. The procedure was repeated with 60 minutes digestion time. 100 μL of each samples were transferred to a clean tube, flash-frozen and subsequently used for LC/MS quantification of GR repeats of different lengths. The remaining 300 μL of each samples were flash-frozen and used to assess neuron toxicity.
300 μL of CSF were applied to each immobilized proteases and incubated 60 minutes at room temperature with end-to-end mixing. Columns were spun down 1 minute at 1,000 Xg to recover treated CSF. Samples were flash-frozen and subsequently used to test neuron toxicity.
This example describes the reduced toxicity of (GR)10 on in vitro neuronal cells by digestion of (GR)10 with proteases.

[2] = test system: (GR)10; assay: Cleavage of (GR)10 by commercial immobilized trypsin (agarose resin) in PBS; type: biochemical; conditions: (GR)10 50 μM
Procedure: • Immobilized TPCK-trypsin on agarose resin; ThermoFisher Cat #20230 Lot #TA264999; Activity: 555 TAME units/mL of gel; the resin was washed with PBS • TPCK-trypsin; ThermoFisher Cat #20233 Lot #SB241185; Activity: 308 TAME units/mg of protein • NOTE: One TAME unit is equal to 1 μmole of TAME (p-toluenesulfonyl-L-arginine methyl ester in the presence of Ca2+) hydrolyzed/min at pH 8.2, 25° C. (One TAME unit=19.2 National Formulatory units=57.5 BAEE units
110 μL of 50 μM (GR)10 dipeptide repeats prepared in PBS was added to immobilized trypsin in 0.8 mL centrifuge columns and incubated for the prescribed time at room temperature with end-to-end mixing resin. Columns were spun down 1 minute at 1,000 Xg to recover digested GR dipeptides. Columns were washed with 110 μL of PBS to increase (GR)10 recovery. 100 μL of each samples were transferred to a new tube and 5 μL of 10% TFA followed by 300 μL of Dilution Solution were added. The reaction mixtures were analyzed by LC/MS to determine the concentration of GR repeats of different lengths.

[3] = 1 TAME unit = 1 μmole TAME hydrolyzed/min at pH 8.2, 25° C.; cited from earlier work

B1: resins having immobilized clostripain: clostripain immobilized on agarose resin (protein, UniProt P09870 51-181; P09870 191-526, looked up)
Clostripain light chain: NKNQKVTIMYYCDADNNLEGSLLNDIEEMKTGYKDSPNLNLIALVDRSPRYSSDEKVLGEDFSDTRLYKIEHNKANRLDGKNEFPEISTTSKYEANMGDPEVLKKFIDYCKSNYEADKYVLIMANHGGGAR
Clostripain heavy chain: AICWDDSNLDKNGEADCLYMGEISDHLTEKQSVDLLAFDACLMGTAEVAYQYRPGNGGFSADTLVASSPVVWGPGFKYDKIFDRIKAGGGTNNEDDLTLGGKEQNFDPATITNEQLGALFVEEQRDSTHANGRYDQHLSFYDLKKAESVKRAIDNLAVNLSNENKKSEIEKLRGSGIHTDLMHYFDEYSEGEWVEYPYFDVYDLCEKINKSENFSSKTKDLASNAMNKLNEMIVYSFGDPSNNFKEGKNGLSIFLPNGDKKYSTYYTSTKIPHWTMQSWYNSIDTVKYGLNPYGKLSWCKDGQDPEINKVGNWFELLDSWFDKTNDVTGGVNHYQW
modifications: immobilized on agarose resin
[1]
  Effect of protease treatment of (GR)10 on (GR)10 toxicity: abrogation of (GR)10 toxicity

B2: Immobilized trypsin: Immobilized TPCK-trypsin on agarose resin; ThermoFisher Cat #20230 (protein, UniProt P00760 24-246, looked up)
Serine protease 1: IVGGYTCGANTVPYQVSLNSGYHFCGGSLINSQWVVSAAHCYKSGIQVRLGEDNINVVEGNEQFISASKSIVHPSYNSNTLNNDIMLIKLKSAASLNSRVASISLPTSCASAGTQCLISGWGNTKSSGTSYPDVLKCLKAPILSDSSCKSAYPGQITSNMFCAGYLEGGKDSCQGDSGGPVVCSGKLQGIVSWGSGCAQKNKPGVYTKVCNYVSWIKQTIASN
modifications: TPCK-treated, immobilized on agarose resin
[2]; 0.625 TAME Units, 0 min
  (GR)1 concentration: BLQ
  (GR)2 concentration: BLQ
  (GR)4 concentration: 0.1 µM
  (GR)6 concentration: BLQ
  (GR)8 concentration: 1.0 µM
  (GR)10 concentration: 68.4 µM
[2]; 0.625 TAME Units, 5 min
  (GR)1 concentration: 248.4 µM
  (GR)2 concentration: 114.9 µM
  (GR)4 concentration: 0.3 µM
  (GR)6 concentration: 0.1 µM
  (GR)8 concentration: BLQ
  (GR)10 concentration: 3.1 µM
[2]; 0.625 TAME Units, 10 min
  (GR)1 concentration: 307.0 µM
  (GR)2 concentration: 89.6 µM
  (GR)4 concentration: 0.2 µM
  (GR)6 concentration: BLQ
  (GR)8 concentration: BLQ
  (GR)10 concentration: 2.1 µM
[2]; 0.625 TAME Units, 30 min
  (GR)1 concentration: 411.7 µM
  (GR)2 concentration: 11.8 µM
  (GR)4 concentration: 0.1 µM
  (GR)6 concentration: BLQ
  (GR)8 concentration: BLQ
  (GR)10 concentration: 0.6 µM
[2]; 0.625 TAME Units, 60 min
  (GR)1 concentration: 465.4 µM
  (GR)2 concentration: 5.6 µM
  (GR)4 concentration: BLQ
  (GR)6 concentration: BLQ
  (GR)8 concentration: BLQ
  (GR)10 concentration: 1.0 µM
[2]; 0.625 TAME Units, 120 min
  (GR)1 concentration: 385.8 µM
  (GR)2 concentration: 1.0 µM
  (GR)4 concentration: BLQ
  (GR)6 concentration: BLQ
  (GR)8 concentration: BLQ
  (GR)10 concentration: 0.1 µM
[2]; 6.25 TAME Units, 0 min
  (GR)1 concentration: 0.2 µM
  (GR)2 concentration: 0.2 µM
  (GR)4 concentration: 0.1 µM
  (GR)6 concentration: BLQ
  (GR)8 concentration: BLQ
  (GR)10 concentration: 32.7 µM
[2]; 6.25 TAME Units, 5 min
  (GR)1 concentration: 391.0 µM
  (GR)2 concentration: 1.2 µM
  (GR)4 concentration: BLQ
  (GR)6 concentration: BLQ
  (GR)8 concentration: BLQ
  (GR)10 concentration: 0.9 µM
[2]; 6.25 TAME Units, 10 min
  (GR)1 concentration: 505.5 µM
  (GR)2 concentration: 3.8 µM
  (GR)4 concentration: 0.1 µM
  (GR)6 concentration: BLQ
  (GR)8 concentration: BLQ
  (GR)10 concentration: 1.6 µM
[2]; 6.25 TAME Units, 30 min
  (GR)1 concentration: 480.2 µM
  (GR)2 concentration: 0.2 µM
  (GR)4 concentration: BLQ
  (GR)6 concentration: BLQ
  (GR)8 concentration: BLQ
  (GR)10 concentration: 0.9 µM
[2]; 6.25 TAME Units, 60 min
  (GR)1 concentration: 409.6 µM
  (GR)2 concentration: 0.1 µM
  (GR)4 concentration: BLQ
  (GR)6 concentration: BLQ
  (GR)8 concentration: BLQ
  (GR)10 concentration: 0.2 µM
[2]; 6.25 TAME Units, 120 min
  (GR)1 concentration: 396.0 µM
  (GR)2 concentration: 0.2 µM
  (GR)4 concentration: BLQ
  (GR)6 concentration: 0.1 µM
  (GR)8 concentration: BLQ
  (GR)10 concentration: 0.1 µM
[3]
  Activity: 555 TAME units/mL of gel
